# According to publication doi:10.1101/2022.12.19.520972 (bioRxiv, 2022):
# T1: PEX13 SH3 (261-346) (human, UniProt Q92968 261-346)
# T1 sequence: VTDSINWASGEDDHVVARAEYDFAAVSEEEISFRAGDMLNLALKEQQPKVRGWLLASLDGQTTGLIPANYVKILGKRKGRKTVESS
# B1: PEX5 W3 (peptide)
# peptide: VSPARWAEEYLEQSE
# B2: PEX14 NTD (1-104) (domain or fragment)
# chain: MASSEQAEQPSQPSSTPGSENVLPREPLIATAVKFLQNSRVRQSPLATRRAFLKKKGLTDEEIDMAFQQSGTAADEPSSLGPATQVVPVQPPHLISQPYSPAGS
# B3: PEX5 W5 (peptide)
# peptide: AQAEQWAAEFIQQQG
# B4: PEX5 W7 (peptide)
# peptide: AEAHPWLSDYDDLTS
# B5: PEX13 SH3-CTR (261-403) (domain or fragment)
# chain: VTDSINWASGEDDHVVARAEYDFAAVSEEEISFRAGDMLNLALKEQQPKVRGWLLASLDGQTTGLIPANYVKILGKRKGRKTVESSKVSKQQQSFTNPTLTKGATVADSLDEQEAAFESVFVETNKVPVAPDSIGKDGEKQDL
# B6: PEX5 W4 (peptide)
# peptide: TATDRWYDEYHPEED
# B7: PEX13 FxxxF (350-403) (domain or fragment)
# chain: KQQQSFTNPTLTKGATVADSLDEQEAAFESVFVETNKVPVAPDSIGKDGEKQDL
# B8: PEX5 W2 (peptide)
# peptide: YNETDWSQEFISEVT
# B9: PEX13 C-terminal peptide FxxxF to PEX5 W4 (domain or fragment)
# chain: QQQSFTNPTLTKGATVADSLDEQEAAWYDEYVETNKVPVAPDSIGKDGEKQDL
# B10: PEX13 PxxP peptide (49-61) (peptide)
# peptide: TRVPPPILPRPSQ
# B11: PEX5 W6 (peptide)
# peptide: GTSDAWVDQFTRPVN
# B12: PEX5 W1 (peptide)
# peptide: ALSENWAQEFLAAGD
# Tests used:
# [1] = molecular target: B2; assay: ITC
# [2] = molecular target: B5; assay: ITC
# [3] = molecular target: T1, PEX13 SH3 (261-346); assay: ITC
# [4] = molecular target: T1, PEX13 SH3 (261-346); assay: NMR titration
# [5] = molecular target: B5; assay: NMR titration
binder,measurement,setting,value
B1,binding result,[1],binds
B2,Kd,[2],5.4 µM
B3,binding result,[1],binds
B4,binding result,[1],binds
B5,stoichiometry N,[1],1
B6,Kd,[1],3.14 µM
B7,Kd,[3],27 µM
same,Kd,[1],2.8 µM
same,stoichiometry N,[1],1
B8,binding result,[1],binds
B9,Kd,[3],~6 µM
same,stoichiometry N,[3],1
B10,binding result,[4],binds
same,binding result,[5],binds
B11,binding result,[1],binds
B12,binding result,[1],binds
